Data set [1] addresses T1, AoSOX1 (Aspergillus oryzae, UniProt Q2UA33).
T1 construct: gene AO090102000564; secreted full-length protein, 384 aa including predicted 19-residue signal peptide (removed); C-terminal His6 tag added but apparently cleaved off by host protease; expressed in Trichoderma reesei; N-glycosylated; MW 43959 by MS
T1 sequence (Q2UA33 20-384): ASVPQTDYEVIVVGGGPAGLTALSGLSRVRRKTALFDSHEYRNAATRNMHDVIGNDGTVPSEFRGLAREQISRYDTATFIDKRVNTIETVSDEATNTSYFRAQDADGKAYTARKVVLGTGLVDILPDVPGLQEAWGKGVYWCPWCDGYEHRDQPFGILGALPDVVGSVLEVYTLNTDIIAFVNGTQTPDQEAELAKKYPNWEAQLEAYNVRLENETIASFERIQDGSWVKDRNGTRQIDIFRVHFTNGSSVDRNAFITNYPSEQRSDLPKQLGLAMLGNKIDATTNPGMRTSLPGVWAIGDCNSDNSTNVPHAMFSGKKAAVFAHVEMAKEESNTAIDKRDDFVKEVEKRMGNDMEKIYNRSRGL
Kind of data set: UV/visible absorption; cofactor released by thermal and chemical denaturation. It counts as binding. The conditions noted are these: non-covalently bound cofactor; 20 mM Tris-HCl pH 7.0, 25 °C.

Substrate in data set [2]: N[C@@H](CS)C(=O)O
Kind of data set: initial rates, Michaelis-Menten (HVA-peroxidase coupled assay, the paper's general assay). It counts as biochemical, Aspergillus oryzae. The conditions noted are these: co-substrate O2, general assay in 50 mM potassium phosphate, 0.3 mM EDTA, pH 7.5. The text has this:
(§1) initial rates, Michaelis-Menten (HVA-peroxidase coupled assay, the paper's general assay) on AoSOX1

Substrate in data set [3]: N[C@H](CS)C(=O)O
The description is as above. It counts as biochemical, Aspergillus oryzae. The conditions noted are these: co-substrate O2, general assay in 50 mM potassium phosphate, 0.3 mM EDTA, pH 7.5.
Source text: as §1

Substrate in data set [4]: OCCS
The description is as above. It counts as biochemical, Aspergillus oryzae. The following applies: co-substrate O2, general assay in 50 mM potassium phosphate, 0.3 mM EDTA, pH 7.5.
Source text: as §1

For the molecule `Cc1cc2nc3c(=O)[nH]c(=O)nc-3n(C[C@H](O)[C@H](O)[C@H](O)COP(=O)(O)OP(=O)(O)OC[C@H]3O[C@@H](n4cnc5c(N)ncnc54)[C@H](O)[C@@H]3O)c2cc1C` [FAD], the “UV/visible absorption; cofactor released by thermal and chemical denaturation” value in data set [1] is listed as “The cofactor was spectrophotometrically identified to be FAD after the cofactor was released”.

B1: AoSOX1 (Aspergillus oryzae RIB40) (protein)
chain: T1 sequence (Q2UA33 20-384)
notes: secreted full-length protein, 384 aa including predicted 19-residue signal peptide (removed); C-terminal His6 tag added but apparently cleaved off by host protease; expressed in Trichoderma reesei; N-glycosylated; MW 43959 by MS
For orientation: Km means the substrate concentration at which the rate is half of its maximum. As a reminder, the kcat is the number of substrate molecules converted per active site and unit of time at saturation. For B1, in data set [2], the Km was 6.11 ± 0.13 mM and the Vmax/Km is 21800 min⁻¹. Also, in data set [3], the Km is given as 1.55 ± 0.03 mM, the Vmax/Km was 9780 min⁻¹ and the kcat amounted to 5950 s⁻¹. In data set [4], the Km worked out at 9.73 ± 0.08 mM and the Vmax/Km came out at 13100 min⁻¹.

For the origin of these results see publication PMC2936869, “Secreted fungal sulfhydryl oxidases: sequence analysis and characterisation of a representative flavin-dependent enzyme from Aspergillus oryzae” (BMC Biochemistry, 2010).
